{
  "source": "paper PMC5683694",
  "about": "(ACS Omega, 2017)",
  "molecules": {"B1": {"name": "G7-18NATE-P16 (cyclo-(CH2CO-WFEGYDNTFPC-RQIKIWFQNRRMKWKK)) (peptide)", "peptide": "{CH2CO}-WFEGYDNTFPCRQIKIWFQNRRMKWKK", "modifications": "thioether N-11"}, "B2": {"name": "G7-18NATE-P7 (cyclo-(CH2CO-WFEGYDNTFPC-RRMKWKK)) (peptide)", "peptide": "{CH2CO}-WFEGYDNTFPCRRMKWKK", "modifications": "thioether N-11"}, "B3": {"name": "G7-18NATE (cyclo-CH2CO-WFEGYDNTFPC) (peptide)", "peptide": "{CH2CO}-WFEGYDNTFPC", "modifications": "thioether N-11"}},
  "key": {"[1]": {"conditions": "cited from earlier work"}, "[2]": {"tested_on": "live cells", "conditions": "fluorescence correlation microscopy on live cells; cited from earlier work"}, "[3]": {"molecular_target": "Grb7-SH2 domain (growth factor receptor bound protein 7, residues 415-532) (UniProt Q14451 415-532)", "sequence (Q14451 415-532)": "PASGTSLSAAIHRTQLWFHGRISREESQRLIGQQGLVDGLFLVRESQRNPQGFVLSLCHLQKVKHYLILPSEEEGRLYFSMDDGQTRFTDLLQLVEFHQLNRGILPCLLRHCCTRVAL", "assay": "thermal shift assay"}},
  "note": "Positions of bridges follow the written chain, without caps; N, C: chain ends. No end group written: not given here.",
  "data": [
    {"molecule": "FQNRRMKWKK", "values": [
      {"measurement": "uptake compared to that of the full-length Penetratin sequence", "setting": "[1]", "value": "negligible uptake"}
    ]},
    {"molecule": "NRRMKWKK", "values": [
      {"measurement": "translocation efficiency", "setting": "[2]", "value": "poor translocation efficiency"}
    ]},
    {"molecule": "B1", "values": [
      {"measurement": "change in Tm", "setting": "[3]", "value": 0.74, "unit": "°C"}
    ]},
    {"molecule": "B2", "values": [
      {"measurement": "change in Tm", "setting": "[3]", "value": 1.8, "unit": "°C"}
    ]},
    {"molecule": "B3", "values": [
      {"measurement": "change in Tm", "setting": "[3]", "value": 0.8, "unit": "°C"}
    ]}
  ]
}
